Data published in article PMC6238616.

Assays:
[1] = molecular target: synaptotagmin binding cytoplasmic RNA interacting protein (SYNCRIP), wild type, LUMIER fusion; experiment: LUMIER; conditions: read off a plot
[2] = molecular target: SMN1, wild type, LUMIER fusion (UniProt Q16637); experiment: LUMIER; conditions: parent: est. 120000; read off a plot
SMN1, wild type, LUMIER fusion (UniProt Q16637), sequence (Q16637 whole entry, the tested form may be a part): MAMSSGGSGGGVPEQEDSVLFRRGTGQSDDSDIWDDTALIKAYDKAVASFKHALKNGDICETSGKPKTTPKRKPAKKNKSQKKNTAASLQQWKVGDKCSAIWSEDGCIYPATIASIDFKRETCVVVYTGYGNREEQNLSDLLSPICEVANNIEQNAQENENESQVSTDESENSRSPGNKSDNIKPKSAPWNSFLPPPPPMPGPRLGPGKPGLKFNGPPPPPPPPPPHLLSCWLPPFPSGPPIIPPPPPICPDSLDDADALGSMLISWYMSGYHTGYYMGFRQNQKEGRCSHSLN

SMN1, wild type, LUMIER fusion (from UniProt Q16637) SMN1 DD MT, sequence (Q16637 whole entry, change not shown, the tested form may be a part): as the sequence (Q16637 whole entry, the tested form may be a part) above

Row | response ([1]; parent: est. 100000) | response [2] | response ([1]; parent: est. 180000) | Substance
1 | 32000 RU | – | – | PHF1, wild type, LUMIER fusion (from UniProt O43189) Y47A
2 | – | 37000 RU | 110000 RU | SMN1, wild type, LUMIER fusion (from UniProt Q16637) SMN1 DD MT
3 | – | – | 91000 RU | SMN1, wild type, LUMIER fusion (from UniProt Q16637) Y127L
